Measurements: publication PMC8168397

The substances below were run against Syrian hamster FcγRI, soluble ectodomain (Syrian hamster (Mesocricetus auratus)) (assay: SPR).

| Substance | Kd [nM] |
| --- | --- |
| human IgG1 Fc domain variant GAALIE (from UniProt P01857) | > 1000 |
| Hamster IgG2a | 496 |
| Mouse IgG2a | 338 |
| human IgG1 Fc domain variant V11 (from UniProt P01857) | > 1000 |
| Hamster IgG1 | > 1000 |
| Mouse IgG1 | > 1000 |
| wild-type human IgG1 (from UniProt P01857) | 737 |

These substances were tested against Syrian hamster FcγRIII, soluble ectodomain (Syrian hamster (Mesocricetus auratus)) (assay: SPR).

| Substance | Kd [nM] |
| --- | --- |
| human IgG1 Fc domain variant GAALIE (from UniProt P01857) | 233 |
| Hamster IgG2a | 702 |
| Mouse IgG2a | 572 |
| human IgG1 Fc domain variant V11 (from UniProt P01857) | 260 |
| Hamster IgG1 | 35.5 |
| Mouse IgG1 | 78.1 |
| wild-type human IgG1 (from UniProt P01857) | > 1000 |

What follows are substances tested against Syrian hamster FcγRIIb, soluble ectodomain (Syrian hamster (Mesocricetus auratus)) (assay: SPR).

| Substance | Kd [nM] |
| --- | --- |
| human IgG1 Fc domain variant GAALIE (from UniProt P01857) | 328 |
| Hamster IgG2a | 1030 |
| Mouse IgG2a | 1140 |
| human IgG1 Fc domain variant V11 (from UniProt P01857) | 345 |
| Hamster IgG1 | 56.2 |
| Mouse IgG1 | 143 |
| wild-type human IgG1 (from UniProt P01857) | > 1000 |

What follows are substances tested against Syrian hamster FcγRIV, soluble ectodomain (Syrian hamster (Mesocricetus auratus)) (assay: SPR).

| Substance | Kd [nM] |
| --- | --- |
| human IgG1 Fc domain variant GAALIE (from UniProt P01857) | 9.52 |
| Hamster IgG2a | 17.1 |
| Mouse IgG2a | 14.7 |
| human IgG1 Fc domain variant V11 (from UniProt P01857) | > 1000 |
| Hamster IgG1 | > 1000 |
| Mouse IgG1 | > 1000 |
| wild-type human IgG1 (from UniProt P01857) | 102 |
